In paper PMC6676471:
Where no end group is shown, it is not given here. [ ]: non-standard residue; d: D form. 2Abz = Nc1ccccc1C(=O)O

Target: tcFGE_(W228F), inactive variant of formylglycine generating enzyme from Thermomonospora curvata (Thermomonospora curvata) (UniProt D1A7C3)
Assay: ITC

Chain of UniProt D1A7C3 (D1A7C3 20-303 W228F): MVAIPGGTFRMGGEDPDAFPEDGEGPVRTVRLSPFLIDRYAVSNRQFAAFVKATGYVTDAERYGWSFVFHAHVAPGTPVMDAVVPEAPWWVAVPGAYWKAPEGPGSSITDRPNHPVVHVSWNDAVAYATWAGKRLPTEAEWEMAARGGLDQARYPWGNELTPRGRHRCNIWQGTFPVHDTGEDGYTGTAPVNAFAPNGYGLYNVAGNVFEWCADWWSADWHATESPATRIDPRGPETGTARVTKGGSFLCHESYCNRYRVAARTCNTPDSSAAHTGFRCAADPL

Kd: 40 nM
Binder: [2Abz]ATTPLCGPSRASILSGR [FGE-27: Abz-…]
